Test results reported in patent publication US20180371086A1.

Target: human CD3, on primary human T cells (human) (UniProt P07766)
Assay: cell-based or functional assay

Chain of human CD3, on primary human T cells (human) (P07766 23-207 limits assumed): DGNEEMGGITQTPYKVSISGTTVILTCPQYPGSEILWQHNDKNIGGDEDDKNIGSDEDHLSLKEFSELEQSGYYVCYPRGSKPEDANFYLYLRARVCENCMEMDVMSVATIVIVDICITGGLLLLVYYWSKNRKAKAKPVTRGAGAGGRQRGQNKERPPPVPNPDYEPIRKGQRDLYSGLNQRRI

With PGT-121.60 (antibody) the Ki-67 EC50; CD4 T cells; donor D1597; 7552-infected CEM cells was over 100 µg/mL, the Ki-67 EC50; CD4 T cells; donor D1597; THRO-infected CEM cells was over 100 µg/mL and the Ki-67 EC50; CD4 T cells; donor D1597; uninfected CEM cells was over 100 µg/mL. The Ki-67 EC50; CD4 T cells; donor D2256; 7552-infected CEM cells was over 100 µg/mL, the Ki-67 EC50; CD4 T cells; donor D2256; THRO-infected CEM cells was over 100 µg/mL and the Ki-67 EC50; CD4 T cells; donor D2256; uninfected CEM cells was over 100 µg/mL. For the same substance, the Ki-67 EC50; CD4 T cells; donor D4246; 7552-infected CEM cells was over 100 µg/mL, the Ki-67 EC50; CD4 T cells; donor D4246; THRO-infected CEM cells was over 100 µg/mL and the Ki-67 EC50; CD4 T cells; donor D4246; uninfected CEM cells was over 100 µg/mL. It also gave a Ki-67 EC50; CD4 T cells; donor D4279; 7552-infected CEM cells of over 100 µg/mL, a Ki-67 EC50; CD4 T cells; donor D4279; THRO-infected CEM cells of over 100 µg/mL and a Ki-67 EC50; CD4 T cells; donor D4279; uninfected CEM cells of over 100 µg/mL. It also gave a Ki-67 EC50; CD8 T cells; donor D1597; 7552-infected CEM cells of over 100 µg/mL, a Ki-67 EC50; CD8 T cells; donor D1597; THRO-infected CEM cells of over 100 µg/mL and a Ki-67 EC50; CD8 T cells; donor D1597; uninfected CEM cells of over 100 µg/mL. The Ki-67 EC50; CD8 T cells; donor D2256; 7552-infected CEM cells was over 100 µg/mL, the Ki-67 EC50; CD8 T cells; donor D2256; THRO-infected CEM cells was over 100 µg/mL and the Ki-67 EC50; CD8 T cells; donor D2256; uninfected CEM cells was over 100 µg/mL. The Ki-67 EC50; CD8 T cells; donor D4246; 7552-infected CEM cells was over 100 µg/mL, the Ki-67 EC50; CD8 T cells; donor D4246; THRO-infected CEM cells was over 100 µg/mL and the Ki-67 EC50; CD8 T cells; donor D4246; uninfected CEM cells was over 100 µg/mL. The Ki-67 EC50; CD8 T cells; donor D4279; 7552-infected CEM cells was over 100 µg/mL, the Ki-67 EC50; CD8 T cells; donor D4279; THRO-infected CEM cells was over 100 µg/mL and the Ki-67 EC50; CD8 T cells; donor D4279; uninfected CEM cells was over 100 µg/mL. The Ki-67 Δ Emax; CD4 T cells; donor D1597; 7552-infected CEM cells was 1%, the Ki-67 Δ Emax; CD4 T cells; donor D1597; THRO-infected CEM cells was -1% and the Ki-67 Δ Emax; CD4 T cells; donor D1597; uninfected CEM cells was 1%. For the same substance, the Ki-67 Δ Emax; CD4 T cells; donor D2256; 7552-infected CEM cells was 0%, the Ki-67 Δ Emax; CD4 T cells; donor D2256; THRO-infected CEM cells was -2% and the Ki-67 Δ Emax; CD4 T cells; donor D2256; uninfected CEM cells was 0%. The Ki-67 Δ Emax; CD4 T cells; donor D4246; 7552-infected CEM cells was 0%, the Ki-67 Δ Emax; CD4 T cells; donor D4246; THRO-infected CEM cells was 0% and the Ki-67 Δ Emax; CD4 T cells; donor D4246; uninfected CEM cells was 0%. It also gave a Ki-67 Δ Emax; CD4 T cells; donor D4279; 7552-infected CEM cells of -1%, a Ki-67 Δ Emax; CD4 T cells; donor D4279; THRO-infected CEM cells of 1% and a Ki-67 Δ Emax; CD4 T cells; donor D4279; uninfected CEM cells of 1%. For the same substance, the Ki-67 Δ Emax; CD8 T cells; donor D1597; 7552-infected CEM cells was 0%, the Ki-67 Δ Emax; CD8 T cells; donor D1597; THRO-infected CEM cells was 0% and the Ki-67 Δ Emax; CD8 T cells; donor D1597; uninfected CEM cells was 0%. For the same substance, the Ki-67 Δ Emax; CD8 T cells; donor D2256; 7552-infected CEM cells was 0%, the Ki-67 Δ Emax; CD8 T cells; donor D2256; THRO-infected CEM cells was 0% and the Ki-67 Δ Emax; CD8 T cells; donor D2256; uninfected CEM cells was 0%. The Ki-67 Δ Emax; CD8 T cells; donor D4246; 7552-infected CEM cells was 0%, the Ki-67 Δ Emax; CD8 T cells; donor D4246; THRO-infected CEM cells was 0% and the Ki-67 Δ Emax; CD8 T cells; donor D4246; uninfected CEM cells was 0%. It also gave a Ki-67 Δ Emax; CD8 T cells; donor D4279; 7552-infected CEM cells of 0%, a Ki-67 Δ Emax; CD8 T cells; donor D4279; THRO-infected CEM cells of 0% and a Ki-67 Δ Emax; CD8 T cells; donor D4279; uninfected CEM cells of 0%. The PD-1 EC50; CD4 T cells; donor D1597; 7552-infected CEM cells was over 100 µg/mL, the PD-1 EC50; CD4 T cells; donor D1597; THRO-infected CEM cells was over 100 µg/mL and the PD-1 EC50; CD4 T cells; donor D1597; uninfected CEM cells was over 100 µg/mL. The PD-1 EC50; CD4 T cells; donor D2256; 7552-infected CEM cells was over 100 µg/mL, the PD-1 EC50; CD4 T cells; donor D2256; THRO-infected CEM cells was over 100 µg/mL and the PD-1 EC50; CD4 T cells; donor D2256; uninfected CEM cells was over 100 µg/mL. The PD-1 EC50; CD4 T cells; donor D4246; 7552-infected CEM cells was over 100 µg/mL, the PD-1 EC50; CD4 T cells; donor D4246; THRO-infected CEM cells was over 100 µg/mL and the PD-1 EC50; CD4 T cells; donor D4246; uninfected CEM cells was over 100 µg/mL. For the same substance, the PD-1 EC50; CD4 T cells; donor D4279; 7552-infected CEM cells was over 100 µg/mL, the PD-1 EC50; CD4 T cells; donor D4279; THRO-infected CEM cells was over 100 µg/mL and the PD-1 EC50; CD4 T cells; donor D4279; uninfected CEM cells was over 100 µg/mL. For the same substance, the PD-1 EC50; CD8 T cells; donor D1597; 7552-infected CEM cells was over 100 µg/mL, the PD-1 EC50; CD8 T cells; donor D1597; THRO-infected CEM cells was over 100 µg/mL and the PD-1 EC50; CD8 T cells; donor D1597; uninfected CEM cells was over 100 µg/mL. It also gave a PD-1 EC50; CD8 T cells; donor D2256; 7552-infected CEM cells of over 100 µg/mL, a PD-1 EC50; CD8 T cells; donor D2256; THRO-infected CEM cells of over 100 µg/mL and a PD-1 EC50; CD8 T cells; donor D2256; uninfected CEM cells of over 100 µg/mL. For the same substance, the PD-1 EC50; CD8 T cells; donor D4246; 7552-infected CEM cells was over 100 µg/mL, the PD-1 EC50; CD8 T cells; donor D4246; THRO-infected CEM cells was over 100 µg/mL and the PD-1 EC50; CD8 T cells; donor D4246; uninfected CEM cells was over 100 µg/mL. For the same substance, the PD-1 EC50; CD8 T cells; donor D4279; 7552-infected CEM cells was over 100 µg/mL, the PD-1 EC50; CD8 T cells; donor D4279; THRO-infected CEM cells was over 100 µg/mL and the PD-1 EC50; CD8 T cells; donor D4279; uninfected CEM cells was over 100 µg/mL. For the same substance, the PD-1 Δ Emax; CD4 T cells; donor D1597; 7552-infected CEM cells was 0%, the PD-1 Δ Emax; CD4 T cells; donor D1597; THRO-infected CEM cells was 1% and the PD-1 Δ Emax; CD4 T cells; donor D1597; uninfected CEM cells was 0%. The PD-1 Δ Emax; CD4 T cells; donor D2256; 7552-infected CEM cells was -2%, the PD-1 Δ Emax; CD4 T cells; donor D2256; THRO-infected CEM cells was 1% and the PD-1 Δ Emax; CD4 T cells; donor D2256; uninfected CEM cells was 3%. It also gave a PD-1 Δ Emax; CD4 T cells; donor D4246; 7552-infected CEM cells of 2%, a PD-1 Δ Emax; CD4 T cells; donor D4246; THRO-infected CEM cells of 0% and a PD-1 Δ Emax; CD4 T cells; donor D4246; uninfected CEM cells of 0%. The PD-1 Δ Emax; CD4 T cells; donor D4279; 7552-infected CEM cells was 1%, the PD-1 Δ Emax; CD4 T cells; donor D4279; THRO-infected CEM cells was -2% and the PD-1 Δ Emax; CD4 T cells; donor D4279; uninfected CEM cells was -1%. The PD-1 Δ Emax; CD8 T cells; donor D1597; 7552-infected CEM cells was 0%, the PD-1 Δ Emax; CD8 T cells; donor D1597; THRO-infected CEM cells was 0% and the PD-1 Δ Emax; CD8 T cells; donor D1597; uninfected CEM cells was 0%. It also gave a PD-1 Δ Emax; CD8 T cells; donor D2256; 7552-infected CEM cells of 0%, a PD-1 Δ Emax; CD8 T cells; donor D2256; THRO-infected CEM cells of -1% and a PD-1 Δ Emax; CD8 T cells; donor D2256; uninfected CEM cells of 0%. The PD-1 Δ Emax; CD8 T cells; donor D4246; 7552-infected CEM cells was 0%, the PD-1 Δ Emax; CD8 T cells; donor D4246; THRO-infected CEM cells was 0% and the PD-1 Δ Emax; CD8 T cells; donor D4246; uninfected CEM cells was -1%. The PD-1 Δ Emax; CD8 T cells; donor D4279; 7552-infected CEM cells was 0%, the PD-1 Δ Emax; CD8 T cells; donor D4279; THRO-infected CEM cells was 0% and the PD-1 Δ Emax; CD8 T cells; donor D4279; uninfected CEM cells was 0%.
